Laboratory results taken from paper PMC9876794 (2022).

B1: C2704 (antibody, V domains shown)
VH: EVQLVESGGDLVQPGGSLRLSCAASGFTFSTSWMHWVRQAPGKGLVWVSHINGDGSTTIYADSVKGRFTISRDNAKNTLYLQMNTLRAEDTAVYYCARNTGTHFDYWGQGTLVTVSS
VL: QSALTQPASVSGSPGQSITISCTGTSSDVGRYNYVSWYQQHPGKAPKVMIYDVSNRPSGVSNRFSGSKSGNTASLTISGLQAEDEADYYCSSYTSSSPWVFGGGTKLTVL
B2: D051 (antibody, V domains shown)
VH: QVQLQQWGAGLLKPSETLSLTCAVYGGSFSDYYWTWIRQAPGKGLEWIGEINHSGSTNYNPSLKSRVTISVDTSKSQFSLSLTSVTAADTAVYYCARGRRYCNSLSCPYYFYFYMDVWDKGTTVTVSS
VL: DIQMTQSPSSVSASVGDRVTITCRASQGISSWLAWYQQKPGKAPKLLIYAASSLQSGVPSRFSGSGSGTDFTLTISSLQSEDFATYYCQQANSFPRTFGQGTRLEIK
B3: D049 (antibody, V domains shown)
VH: EVQLVQSGAEVKKPGESLKISCKGSGYSFISHWIGWVRQMPGKGLEWMGIIYPGDSDTRNSPSFQGQVTISADKSISTAYLQWSSLKASDTAMYYCARLLGSNYEVGFDYWGQGTLVTVSS
VL: not shown
B4: D101 (antibody, V domains shown)
VH: EVQLVESGGGLVQPGGSLRLSCAASGFTFSNYDMHWVRQATGKGLEWVSTIGTVGDTYYPGSVKGRFTISRENAKNSLYLQMNSLRAGDTAVYYCARGGGMTTVTLDVWGQGTTVTVSS
VL: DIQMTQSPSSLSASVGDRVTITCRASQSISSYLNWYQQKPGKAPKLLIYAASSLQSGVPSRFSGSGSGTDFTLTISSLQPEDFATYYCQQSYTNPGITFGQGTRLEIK
B5: C2690 (antibody, V domains shown)
VH: EVQLVESGGGVVQPGRSLRVSCAASGFTFSSYGMHWVRQAPGKGLEWVAVISYDGSNKYYADSVKGRFSISRDNSKNTLYLQMNSLRAEDTAVYYCAKVISSFGGGSLNYFDYWGQGTLVTVSS
VL: AIRMTQSPSSLSASVGDRVTITCQASQDISNYLNWYQQKPGKAPKLLIYDASNLETGVPSRFSGSGSGTDFTFTISSLQPEDIATYYCQQYDNLPITFGQGTRLEIK
B6: D124 (antibody, V domains shown)
VH: QVQLQQWGAGLLKPSETLSLTCAVYGGPFTGYSWTWIRQSPGKGLEWIGEINHSGSTSYNPSLQSRVTFSIDTSKNQFSLELSSVTAADTAVYFCARGNRNRYHTSDWYYYGMDVWGQGTTVTVSS
VL: DIQMTQSPSSLSAYVGDRVTITCRASQGINTYLAWYQQKPGKVPRLLIYGASTLQSGVPSRFSGSGSGTEFTLTISSLQPEDIATYYCQKYNSAPRTFGQGTKVEIK
B7: C2728 (antibody, V domains shown)
VH: QVQLVESGGGVVQPGRSLRLSCAASGFTFSSYGMHWVRQAPGKGLEWVAVIWYDGSNKYYADSVKGRFTISRDNSKNTLYLQMNSLRAEDTAVYYCARERPHPSITMIVPNNYGMDVWGQGTTVTVSS
VL: not shown
B8: D144 (antibody, V domains shown)
VH: EVQLVESGGGLVQPGGSLRLSCAASGFTFSSYWMHWVRQAPGKGLVWVSRINSDGSSTSYADSVKGRFTISRDNAKNTLYLQMNSLRAEDTAVYYCARVPDTAMVTGINYYYYYGMDVWGQGTTVTVSS
VL: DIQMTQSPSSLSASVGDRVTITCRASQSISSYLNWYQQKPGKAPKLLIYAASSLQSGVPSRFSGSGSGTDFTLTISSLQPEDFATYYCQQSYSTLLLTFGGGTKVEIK
B9: D146 (antibody, V domains shown)
VH: QVQLVESGGGVVQPGRSLRLSCAASGFTFSSYGMHWVRQAPGKGLEWVAVISYDGSNKYYADSVKGRFTISRDNSKNTLYLQMNSLRAEDTAVYYCAKSLGSYCSSTSCYGGSFDYWGQGTLVTVSS
VL: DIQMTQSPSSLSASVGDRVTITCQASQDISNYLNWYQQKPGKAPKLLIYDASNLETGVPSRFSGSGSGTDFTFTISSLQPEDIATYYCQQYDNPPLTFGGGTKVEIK
B10: D025 (antibody, V domains shown)
VH: QVQLVESGGGVVQPGRSLRLSCAASGFTFSSYGMHWVRQAPGKGLEWVAVISYDGSNKYYADSVKGRFTISRDNSKNTLYLQMNSLRAEDTAVYYCAKRGQGYCGGDCFSGYFDYWGQGTLVTVSS
VL: not shown
B11: D013 (antibody, V domains shown)
VH: QVQLVQSGAEVKKPGASVRISCKTSGYIFAYYFIHWFRQAPGQGPEWMGWINPKSGGTNYAQKFQDRVTMTTDSSITTAFMALRSLRSDDTAVYYCTREGVGTISDAGFGYWGQGTPVTVSS
VL: SYVLTQPPSVSVAPGKTATITCGGNNIGSKSVHWYHQKPGQAPVMVVYNDKERPSGIPERFSGSKSGNTATLTITWVEADDEADYYCQAWDRPSGYVFGTGTKVTVL
B12: D067 (antibody, V domains shown)
VH: EVQLVESGGGLVQPGGSLRLSCAASGFIFSGYDMHWVRQAPGKGLEWVSAIGTAGDTYYPGSVKGRFILSRENAKNSLYLQMNSLRAGDTAVYYCARALYRFGELLGYDYWGQGTLVTVSS
VL: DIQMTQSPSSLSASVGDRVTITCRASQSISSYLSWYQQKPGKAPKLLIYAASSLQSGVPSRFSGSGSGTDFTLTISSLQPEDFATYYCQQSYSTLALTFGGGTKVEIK
B13: C2748 (antibody, V domains shown)
VH: QVQLVQSGAEVKKPGSSVKVSCKASGGTFTNYAISWVRQAPGQGLEWMGGIIPIFGTEDYAQRFQGRVTITADESTSTAYMELTSLTSEDTAVYFCARGLPLTVTTRRRFNFFDYWGQGTLVTVSS
VL: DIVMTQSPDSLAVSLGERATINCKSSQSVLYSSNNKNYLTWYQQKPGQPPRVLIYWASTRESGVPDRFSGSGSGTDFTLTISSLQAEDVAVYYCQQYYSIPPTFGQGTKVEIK
B14: C2721 (antibody, V domains shown)
VH: EVQLVESGGGLIQPGGSLRLSCAASGFTVSSNYMSWVRQAPGKGLEWVSVIYSGGSTYYADSVKGRFTISRDNSKNTLYLQMNSLRAEDTAVYYCARDMGGDAFDIWGQGTMVTVSS
VL: DIQLTQSPSFLSASVGDRVTITCRASQGISSYLAWYQQKPGKAPKLLIYAASTLQSGVPSRFSGSGSGTEFTLTISSLQPEDFATYYCQQLNSYPFFGGGTKVEIK
B15: D006 (antibody, V domains shown)
VH: EVQLVQSGAEVKKPGESLKISCKGSGYSFTSYWIGWVRQMPGKGLEWMGIIYPGDSDTRYSPSFQGQVTISADKSISTAYLQWSSLKASDTAMYYCASFGRNDAFDIWGQGTMVTVSS
VL: not shown
B16: D066 (antibody, V domains shown)
VH: QVQLVQSGAEVKKPGASVKVSCKASEYTFTNYYMHWVRQAPGQGLEWMGIINPSAGSTSYAQKFQGRVRMTSDTSTNTVYMELSSLRSEDTAVYYCARGVLVPAAEYYFDYWGQGTLVTVSS
VL: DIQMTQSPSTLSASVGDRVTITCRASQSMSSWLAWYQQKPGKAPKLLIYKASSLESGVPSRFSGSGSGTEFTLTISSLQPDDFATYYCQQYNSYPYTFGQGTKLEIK
B17: D159 (antibody, V domains shown)
VH: QVQLVESGGGVVQPGGSLRLSCAASGFTFSTYGMHWVRQAPGKGLEWVAFIQYDGSNKYYADSVKGRFTISRDNSKNTLCLQMNTLRAEDTAVYYCAKDLYYYGSGSYFDYWGQGTLVTVSS
VL: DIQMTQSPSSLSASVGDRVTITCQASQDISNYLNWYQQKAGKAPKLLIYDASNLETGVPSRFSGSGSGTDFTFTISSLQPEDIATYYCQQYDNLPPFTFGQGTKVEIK
B18: D070 (antibody, V domains shown)
VH: EVQLVESGGGLVQPGGSLRLSCAASGFTFSSYEMNWVRQAPGKGLEWVSYISSSGSTIYYADSVKGRFTISRDNAKNSLYLQMNSLRAEDTAVYYCARVPRGYYDSSGYYYVGYYFDYWGQGTLVTVSS
VL: DIQLTQSPSFLSASVGDRVTITCRASQGISSYLAWYQQKPGKAPKLLIYAASTLQSGVPSRFSGSGSGTEFTLTISSLQPEDFATYYCQQLNSYTFTFGPGTKVDIK
B19: C2743 (antibody, V domains shown)
VH: QVQLVQSGAEVKKPGASVKVSCKASGYTFTSYGISWVRQAPGQGLEWMGWISAYNGNTNYAQKLQGRVTMTTDTSTSTAYMELRSLRSDDTAVYYCARDFGELATPLDYWGQGTLVTVSS
VL: EIVLTQSPATLSLSPGERATLSCRASQSVSSYLAWYQQKPGQAPRLLIYDASNRATGIPARFSGSGSGTDFTLTISSLEPEDFAVYYCQQRSNSLTFGGGTKVEIK
B20: C2736 (antibody, V domains shown)
VH: QVQLVQSGAEVKKPGSSVKVSCKASGGTFSSYAISWVRQAPGQGLEWMGGIIPIFGTANYAQKFQGRVTITADESTSTAYMELSSLRSEDTAVYYCASCRYYYDSSGYAQPEDYFDYWGQGTLVTVSS
VL: QSVLTQPPSVSGAPGQRVTISCTGSSSNIGAGYDVHWYQQLPGTAPKLLIYGNSNRPSGVPDRFSGSKSGTSASLAITGLQAEDEADYYCQSYDSSLSGSHVVFGGGTKLTVL
B21: C2699 (antibody, V domains shown)
VH: QLQLQESGPGLVKPSETLSLTCTVSRGSISSSSYYWGWIRQPPGKGLEWIGSIYYSGNTYYNPSLKSRVTISVDTSNNQFFLKLSSVTAADTAVYYCARRPNSGWGYWYFDLWGRGTLVTVSS
VL: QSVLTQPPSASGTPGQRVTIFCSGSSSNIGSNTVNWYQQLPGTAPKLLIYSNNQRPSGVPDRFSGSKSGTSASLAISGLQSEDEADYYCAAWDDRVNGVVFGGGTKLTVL
B22: C2708 (antibody, V domains shown)
VH: EVQLVESGGVVVQPGGSLRLSCAASGFTFDDYAMHWVRQAPGKGLEWVSLISWDGGSTYYADSVKGRFTISRDNSKNSLYLQMNSLRAEDTALYYCAKDIEGGSGWSFDYWGQGTLVTVSS
VL: QSALTQPPSVSGSPGQSVTISCTGTSSDVGSYNRVSWYQQPPGTAPKLMIYEVSNRPSGVPDRFSGSKSGNTASLTISGLQAEDEADYYCSSYTSSSTVVFGGGTKLTVL
B23: D164 (antibody, V domains shown)
VH: QVQLVQSGAEVKKPGASVKVSCKASGYTFTSYYMHWVRQAPGQGLEWMGIINPSGGSTSYAQKFQGRVTMTRDTSTSTVYMELSSLRSEDTAVYYCARGGIVPAATENFDYWGQGTLVTVSS
VL: EIVLTQSPATLSLSPGERATLSCRASQSVSSYLAWYQQKPGQAPRLLIYDASNRATGIPARFSGSGSGTDFTLTISSLEPEDFAVYYCQQRSNWPITFGQGTRLEIK
B24: D002 (antibody, V domains shown)
VH: EVQLVQSGAEVKKPGESLKISCKASGYNFTTSWIGWVRQMPGKGLEWMGIIYPGDFDTTYSPSFQGQVTISADKSISTAYLQWSSLKASDTAMYYCARVGPTAGTDGYNYLDWYFDLWGRGTLVTVSS
VL: SYELTQPPSVSVSPGQTARITCSGDALPKQFSYWYQQKPGQAPVLVIYKDNERPSGIPERFSGSSSGTTVTLTISGVQAEDEADYYCQSADSISWVFGGGTKLTVL

molecular target: T1, SARS-CoV-2 spike RBD (WT) (Severe acute respiratory syndrome …, UniProt P0DTC2); assay: BLI

| Binder | Kd [nM] |
| --- | --- |
| B1 | 205 |
| B2 | 2240 |
| B3 | 9.69 |
| B4 | 46.9 |
| B5 | 103 |
| B6 | 219 |
| B7 | 536 |
| B8 | 19.2 |
| B9 | 98.1 |
| B10 | 172 |
| B11 | 338 |
| B12 | 183 |
| B13 | 2.4 |
| B14 | 98.5 |
| B15 | 8.76 |
| B16 | 7.6 |
| B17 | 16.9 |
| B18 | 115 |
| B19 | 18.5 |
| B20 | 6.14 |
| B21 | 74 |
| B22 | 597 |
| B23 | 194 |
| B24 | 465 |

molecular target: T1, SARS-CoV-2 spike RBD (WT); assay: ELISA; set-up: unit not given here

| Binder | binding score |
| --- | --- |
| B1 | 410 |
| B2 | > 10000 |
| B3 | 6.28 |
| B4 | 8.93 |
| B5 | 381 |
| B6 | 2540 |
| B7 | 132 |
| B8 | 24.8 |
| B9 | 574 |
| B10 | > 10000 |
| B11 | 1330 |
| B12 | 352 |
| B13 | 11.7 |
| B14 | 174 |
| B15 | 41.6 |
| B16 | 11.9 |
| B17 | 59.9 |
| B18 | 716 |
| B19 | 14.3 |
| B20 | 79.9 |
| B21 | 334 |
| B22 | 7040 |
| B23 | 63.2 |
| B24 | 3640 |
